From PMC11417404, “The molecular mechanism for TERRA recruitment and annealing to telomeres”

Target: RAD51 (UniProt Q06609 1-339)
Experiment: EMSA; 1 mM Mg2+, 1 mM ATP; highest affinity, unbound band gone at lowest RAD51 (1.5 uM); RAD51 EMSA: 50 mM Tris-HCl pH 7.5, 50 mM KCl, 1 mM MgCl2, 1 mM ATP, 37 C 10 min; 0.8% TBE agarose + 10 mM KCl at 4 C. Single molecule: T50 (10 mM Tris-HCl pH 7.5, 50 mM NaCl); imaging 10 mM Tris-HCl pH 7.5, 100 mM NaCl, 10% glycerol. Supplementary Table 2 kd values are for TERRA/DNA annealing to (protein-bound) duplex, not …
Conditions: protein: recombinant; label: Cy3; G4, single strand

RAD51, sequence (Q06609 whole entry): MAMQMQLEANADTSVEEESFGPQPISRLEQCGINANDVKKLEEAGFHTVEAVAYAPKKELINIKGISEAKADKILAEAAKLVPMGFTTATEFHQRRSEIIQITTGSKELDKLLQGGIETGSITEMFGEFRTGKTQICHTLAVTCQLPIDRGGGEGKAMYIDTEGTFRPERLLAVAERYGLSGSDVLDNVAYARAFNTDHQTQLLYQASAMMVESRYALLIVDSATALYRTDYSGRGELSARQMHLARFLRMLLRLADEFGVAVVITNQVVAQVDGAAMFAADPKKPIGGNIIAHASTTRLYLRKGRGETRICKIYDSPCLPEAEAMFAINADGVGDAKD

UGGCGACGGCAGCGAGGCUUAGGGUUAGGGUUAGGGUUAGGG (structured_RNA) [TERRA-18]
binding result: binds
